Assay results taken from PMC4605301, “hSSB1 (NABP2/ OBFC2B) is required for the repair of 8-oxo-guanine by the hOGG1-mediated base excision repair pathway”.

Biological target: hSSB1 (NABP2/OBFC2B) (Homo sapiens, UniProt Q9BQ15 1-211)
Assay: EMSA; 0-2 uM hSSB1; 90 fmol DNA in 10 ul; 8-oxoG opposite C (pairing base inferred); EMSA: 50 mM Tris-HCl pH 7.5, 100 mM KCl, 100 ug/ml BSA, 15 min at 37 C; 8% polyacrylamide gel
Conditions: protein: recombinant; tags: N-terminal His6; label: 5' FAM; blunt

Chain of hSSB1 (NABP2/OBFC2B) (Q9BQ15 whole entry): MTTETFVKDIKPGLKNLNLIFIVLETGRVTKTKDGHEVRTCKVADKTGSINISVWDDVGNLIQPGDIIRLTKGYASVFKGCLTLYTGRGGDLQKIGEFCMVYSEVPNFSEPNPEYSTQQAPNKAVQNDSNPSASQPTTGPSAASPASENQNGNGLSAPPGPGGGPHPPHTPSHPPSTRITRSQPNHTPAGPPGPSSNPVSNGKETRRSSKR

B1: 8-oxoG:C dsDNA (dsDNA)
DNA 1: CTCTCCCTTCGCTCCTTTCCTCT
DNA 2: AGAGGAAAGGAGCGAAGGGAGAG
modifications: 8-oxoguanine at position 11 of strand 1 (written G)
B1: binds.
